This is an account of results in US20200369771A1 (JOINT STOCK COMPANY BIOCAD, published 2020).

Numbering of substitutions follows the chain as printed.

For test [1], the target named is T1, human PD-L1 (recombinant, in solution) (human, UniProt Q9NZQ7 19-238, limits assumed).
T1 construct: also called human PD-L1 antigen
The test can be described thus: BLI Octet Red 96, Fab from E. coli supernatant on anti-FABCH1 sensors, PD-L1 at 30 ug/mL, 1:1 model. As to the method: Anti-FABCH1-biosensors (SA) were rehydrated for 30 minutes in the reaction buffer containing 10 mM PBS, pH 7.2-7.4, 0.1% Tween-20, 0.1% BSA. The reaction buffer was added into study E. coli supernatant samples to a final concentration of 1×. Then, anti-FABCH1-biosensors were submerged in E. coli supernatants containing Fab fragments of candidate antibodies for 12 hours at 4 ° C. Sensors with surface immobilized Fab fragments were transferred into wells with reaction buffer wherein baseline was recorded (for 60 seconds). Next, sensors were transferred to wells with analyte solution (PD-L1, 30 μg/mL) to associate antigen-antibody complex (300 s). Then, sensors were returned to the wells containing the reaction buffer for the next dissociation step (600 s). After each experiment, used sensors were regenerated by 3-time placing them into the regeneration buffer (Gly-HCl, pH 1.7), thereafter they were used in the next experiment. Obtained curve analysis was carried out using Octet Data Analysis (ver 7.0) software according to the standard procedure using 1:1 interaction model.
Background: Biolayer interferometry detects binding as a change in optical thickness at a sensor tip.

A further test deals with T2, rabbit PD-L1-Fc (rabbit, UniProt G1SUI3 19-236).
T2 construct: also called rabbity PD-L1-Fc; not shown: Fc part
T2 sequence: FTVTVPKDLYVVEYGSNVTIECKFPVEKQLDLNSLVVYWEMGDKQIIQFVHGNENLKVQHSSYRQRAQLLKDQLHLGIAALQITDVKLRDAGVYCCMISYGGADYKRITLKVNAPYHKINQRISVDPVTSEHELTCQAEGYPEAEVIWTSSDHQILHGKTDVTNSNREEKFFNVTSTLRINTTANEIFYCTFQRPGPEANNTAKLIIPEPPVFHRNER
Kind of test: ELISA, PD-L1-Fc coated at 0.5 ug/ml. As to the method: (§1) ELISA was used to measure the relative affinity of anti-PD-L1 antibodies from different organisms. For the binding assay, ELISA plate wells (medium binding from Greiner bio one) were coated with 50 μl of human, cynomolgus, murine, rat, canine, rabbity PD-L1-Fc, (0.5 μg/ml in 1× carbonate buffer), hermetically sealed and incubated overnight at 4° C. All the subsequent stages were conducted following standard ELISA protocol described above.
(In general: In an ELISA, binding on a coated surface is turned into a signal by an enzyme label.)

For test [2], the target named is T3, cynomolgus monkey PD-L1 (in solution) (cynomolgus monkey, UniProt G7PSE7 19-238).
T3 construct: also called cynomolgus PD-L1 antigen
T3 sequence (G7PSE7 entry or part of it): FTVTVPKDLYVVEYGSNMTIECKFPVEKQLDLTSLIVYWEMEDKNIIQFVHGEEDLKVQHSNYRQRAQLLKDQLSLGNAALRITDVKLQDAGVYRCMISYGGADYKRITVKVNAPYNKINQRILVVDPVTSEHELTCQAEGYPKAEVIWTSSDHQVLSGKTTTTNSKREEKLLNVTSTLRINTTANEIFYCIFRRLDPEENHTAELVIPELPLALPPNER
Kind of test: BLI OctetRed 96, BCD-135 on AR2G sensors, PD-L1 in solution at 10 to 1 ug/ml, 30 C, 1:1 model; cynomolgus PD-L1. Here is the method: (§2) Constants of the antibody binding affinity to human and cynomolgus PD-L1 were measured with an OctetRed 96 instrument (from ForteBio). […] The assay was carried out at 30 ° C. using PBS containing 0.1% Tween-20 and 0.1% BSA as a reaction buffer. The binding of human and monkey PD-L1 solutions to a sensor-bound antibody was analysed in a work buffer with an antigen concentration of 10 μg/ml to 1 μg/ml.
(§3) The binding curves minus the reference signal were analyzed using Octet Data Analysis (ver 8.2) software according to the standard procedure using the 1:1 interaction model.

The next test deals with T4, IL17a (Homo sapiens (Human), UniProt Q16552 24-155).
T4 construct: Off-target antigen in the specificity ELISA
T4 sequence (Q16552 24-155 limits assumed): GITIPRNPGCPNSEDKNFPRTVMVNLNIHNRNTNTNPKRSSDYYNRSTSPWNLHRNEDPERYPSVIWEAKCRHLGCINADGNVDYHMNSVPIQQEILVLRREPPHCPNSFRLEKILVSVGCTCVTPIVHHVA
Kind of test: ELISA, antigen coated at 1 µg/ml, BCD-135 titrated 5 to 0.0007 µg/ml, OD 450 nm. As to the method:
(§4) ELISA was used to measure the relative affinity of anti-PD-L1 antibodies and other antigens. For binding assay, ELISA plate wells (medium binding from Greiner bio one) were coated with 50 μl of PD-L1-Fc, fPCSK9-EPEA, Ang2-H6F, GM-CSF-FE, CD3-ED-Fc, IL17a, CD38-Fc, IL6R-Fc (1 μg/ml in lx carbonate buffer), hermetically sealed and incubated overnight at 4° C. All the subsequent stages were conducted following standard ELISA protocol. To block a non-specific binding, a buffer BB (200 μL of 0.5% skimmed milk in PBS) was added. The plates were incubated on a shaker for an hour at room temperature. […] The plates were again incubated, shaking for one hour at room temperature, followed by washing for three times each plate well with PBS-Twin buffer. Once washed, (50 μL/well) anti-human Fab HRP-conjugated secondary antibodies (from Pierce-ThermoScientific) were added at 1:5000 ratio in PBS-Tween. The plates were shaken on a rotary shaker (50 min, room temperature) and washed for three times with FSB-Twin buffer, as described above. The colourimetric signal was developed by adding TMB (50 μL/well) until saturation (average 3-5 min), then the development was quenched by adding stop solution (30 μL/well, 10% sulphuric acid). Colour signal was measured at a wavelength of 450 nm using a suitable Tecan-Sunrise plate reader (from Tecan).

The target of a further test is T5, cynomolgus PD-L1-Fc (cynomolgus, UniProt G7PSE7 19-238).
T5 construct: not shown: Fc part
T5 sequence (G7PSE7 entry or part of it): as the sequence (G7PSE7 entry or part of it) above
Kind of test: ELISA, PD-L1-Fc coated at 0.5 µg/ml, antibody titrated 5 to 0.0007 µg/ml, OD 450 nm. Here is the method: as §1

A further test addresses T6, murine PD-L1-Fc (murine, UniProt Q9EP73 19-239, limits assumed).
T6 construct: not shown: Fc part
Described as above. Here is the method: as §1

A further test deals with T7, canine PD-L1-Fc (canine, UniProt E2RKZ5 19-236).
T7 sequence: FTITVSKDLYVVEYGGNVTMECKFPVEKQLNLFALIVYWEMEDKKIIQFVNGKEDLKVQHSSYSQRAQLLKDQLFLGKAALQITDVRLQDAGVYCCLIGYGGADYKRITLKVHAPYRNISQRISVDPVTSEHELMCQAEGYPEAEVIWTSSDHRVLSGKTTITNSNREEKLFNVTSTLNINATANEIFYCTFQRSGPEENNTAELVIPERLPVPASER
Described as above. As to the method:
as §1

The target in test [3] is T8, human PD-L1-Fc (human, UniProt Q9NZQ7 19-238, limits assumed).
T8 construct: not shown: Fc part
T8 sequence (Q9NZQ7 19-238 limits assumed): as the sequence (G7PSE7 entry or part of it) above, with T33A, S34A, N62S, Q68R, R82Q, L173F, A185T, I192T, L215H counted along it
Described as above. Here is the method:
as §1

A further test has as its target rat PD-L1-Fc (rat, UniProt D4AE25 19-239). The test is described as above. As to the method:
as §1

The target in test [4] is T1, human PD-L1 (recombinant, in solution). Kind of test: BLI OctetRed 96, BCD-135 on AR2G sensors, PD-L1 in solution at 10 to 1 ug/ml, 30 C, 1:1 model; human PD-L1. As to the method:
as §2, §3

Another test has as its target T9, FcgRIa (Homo sapiens (Human), UniProt P12314 16-292, C-terminal biotin; the letters of any biotinylation or purification tag are not given).
T9 construct: Biotinylated receptor held on streptavidin sensors; also called Fcg receptor; Fcγ-receptor
Kind of test: Biolayer interferometry (Octet RED96), biotinylated receptor on streptavidin sensors, antibody in solution, phosphate buffer pH 7.4.

Test [5] addresses T8, human PD-L1-Fc. The test can be described thus: ELISA, antigen coated at 1 µg/ml, BCD-135 titrated 5 to 0.0007 µg/ml, anti-human Fab HRP, OD 450 nm. As to the method: as §4

T1 sequence (Q9NZQ7 other isoform, or with tags, fused parts or gaps limits assumed): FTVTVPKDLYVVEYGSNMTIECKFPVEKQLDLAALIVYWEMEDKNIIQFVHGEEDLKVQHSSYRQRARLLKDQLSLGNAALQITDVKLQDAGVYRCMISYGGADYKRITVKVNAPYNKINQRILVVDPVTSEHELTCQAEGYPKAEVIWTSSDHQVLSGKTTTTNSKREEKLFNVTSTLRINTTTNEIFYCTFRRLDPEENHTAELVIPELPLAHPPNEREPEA
T9 sequence (P12314 16-292 limits assumed): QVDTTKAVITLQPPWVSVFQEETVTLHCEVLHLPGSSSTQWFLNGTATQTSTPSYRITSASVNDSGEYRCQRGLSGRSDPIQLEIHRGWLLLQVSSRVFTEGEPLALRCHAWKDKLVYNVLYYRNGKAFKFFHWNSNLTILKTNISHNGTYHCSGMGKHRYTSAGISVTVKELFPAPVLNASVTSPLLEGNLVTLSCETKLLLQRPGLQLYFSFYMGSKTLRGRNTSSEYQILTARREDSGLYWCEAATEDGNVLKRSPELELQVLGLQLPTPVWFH
Sequence of rat PD-L1-Fc (D4AE25 entry or part of it limits assumed): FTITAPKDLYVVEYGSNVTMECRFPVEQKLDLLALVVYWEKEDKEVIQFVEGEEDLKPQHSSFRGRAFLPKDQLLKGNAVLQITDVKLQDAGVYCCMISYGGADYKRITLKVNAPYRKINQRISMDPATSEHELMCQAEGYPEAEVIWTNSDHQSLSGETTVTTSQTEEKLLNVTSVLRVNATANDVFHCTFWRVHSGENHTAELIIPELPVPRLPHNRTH
T6 sequence (Q9EP73 19-239 limits assumed): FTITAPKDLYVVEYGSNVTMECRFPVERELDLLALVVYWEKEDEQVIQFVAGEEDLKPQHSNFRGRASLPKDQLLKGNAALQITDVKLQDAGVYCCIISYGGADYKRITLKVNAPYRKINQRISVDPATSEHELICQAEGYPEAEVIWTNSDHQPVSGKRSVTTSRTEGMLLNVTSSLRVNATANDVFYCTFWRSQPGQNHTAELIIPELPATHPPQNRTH
Protocol for FcgRIa: To assay the antibody interactions with FcgRIIIaV, FcgRIa, FcRn receptors, the Fortebio Octet RED96 instrument was used. C-terminal biotinylated receptors and streptavidin-coated biosensors (SA-Streptavidin) were used.
Biotinylated receptors were immobilized on the surface of the sensors. Further, the association stage was carried out: the sensors with the bound antigen were submerged into the antibody solutions with different concentrations (a series of antibody dilutions in a working buffer was prepared in advance and placed into the appropriate wells of a 96-well plate). After this, the dissociation stage was carried out: the sensors from the antibody solution were transferred to wells with the working buffer.
To assay the antibody affinity constants to FcgRIIIaV, and FcgRIa, phosphate buffer PH7.4 was used, for FcRn, phosphate buffer PH6.0 was used.

B1: wild type BCD-135 Fab antibody (Fab, V domains shown)
VH: EVQLVESGGGVVRPGGSLRLSCAASGFTFDDYAMSWVRQAPGKGLEWVSDISWSGSNTNYADSVKGRFTISRDNAKNSLYLQMNSLRAEDTALYHCARAPLLLAMTFGVGSWGQGTLVTVSS
VL: QTVVTQEPSLSVSPGGTVTLTCGLSSGTVTAINYPGWYQQTPGQAPRTLIYNTNTRHSGVPDRFSGSISGNKAALTITGAQAEDEADYYCALYMGNGGHMFGGGTK
notes: Fab made in E. coli and used as supernatant; also called Wild-BCD-135VH; control wild BCD-135 Fab
For the molecule B1, the Response in test [1] was determined as 0.0903.

B2: 2m-BCD-135VH (Fab, V domains shown)
VH: B1 VH with D30N, R98K, L102P, M105T
VL: B1 VL with M94T, N96T, G98S
notes: Substitutions derived from the printed CDR strings; Fab from E. coli supernatant; also called BCD-135 mutant Fab antibody 2m
Regarding B2, in test [1], the Response was 0.0505.

B3: 4m-BCD-135VH (Fab, V domains shown)
VH: B1 VH with D30A, D31N, R98K, L102P, M105T
VL: B1 VL with M94V, N96T, G98S
notes: Substitutions derived from the printed CDR strings; Fab from E. coli supernatant; also called BCD-135 mutant Fab antibody 4m
Consider B3, for which the Response in [1] was 0.0637.

B4: 6m-BCD-135VH (Fab, V domains shown)
VH: B1 VH with D30S, D31T, R98K, L102V, M105I
VL: B1 VL with M94T, N96T, G98S
notes: Substitutions derived from the printed CDR strings; Fab from E. coli supernatant; also called BCD-135 mutant Fab antibody 6m
On to B4, for which the Response in [1] amounted to 0.0945.

B5: 7m-BCD-135VH (Fab, V domains shown)
VH: B1 VH with D30A, R98K, L102P, L103S, M105I
VL: B1 VL with M94E, N96T, G98S
notes: Substitutions derived from the printed CDR strings; Fab from E. coli supernatant; also called BCD-135 mutant Fab antibody 7m
With B5, the Response in test [1] came out at 0.0637.

B6: 1m-BCD-135VH (Fab, V domains shown)
VH: B1 VH with D30A, D31N, R98K, M105T
VL: B1 VL with M94V, N96T, G98S
notes: Fab from E. coli supernatant; also called BCD-135 mutant Fab antibody 1m
Take B6: the Response in [1] worked out at 0.0971.

B7: 5m-BCD-135VH (Fab, V domains shown)
VH: B1 VH with D30K, D31S, M34I, R98K, L102M, M105A
VL: B1 VL with M94Y, N96T, G98S
notes: Substitutions derived from the printed CDR strings; Fab from E. coli supernatant; also called BCD-135 mutant Fab antibody 5m
Consider B7, for which the Response in test [1] was determined as 0.0623.

B8: BCD-135 antibody (antibody, human IgG1, lambda, L234A L235A)
heavy: not shown
light: QTVVTQEPSLSVSPGGTVTLTCGLSSGTVTAINYPGWYQQTPGQAPRTLIYNTNTRHSGVPDRFSGSISGNKAALTITGAQAEDEADYYCALYMGNGGHMFGGGTKLTVLGQPKAAPSVTLFPPSSEELQANKATLVCLISDFYPGAVTVAWKADSSPVKAGVETTTPSKQSNNKYAASSYLSLTPEQWKSHRSYSCQVTHEGSTVEKTVAPTECS
notes: also called anti-PD-L1 antibody; modified IgG1 antibody
For the molecule B8, the binding result with rabbit PD-L1-Fc was “no binding”; with IL17a, “no binding (tested: 5 µg/ml)”; with murine PD-L1-Fc, “no binding (tested: 5 µg/ml)”; with canine PD-L1-Fc, “no binding (tested: 5 µg/ml)”; in the test with rat PD-L1-Fc, “no binding (tested: 5 µg/ml)”; with FcgRIa, “no binding”. Further, the results for the Kd in test [2] and in test [4] were 0.555 nM and less than 0.001 nM, respectively. Also, the “EC50 (read off the curve)” value is roughly 5 ng/mL in the test with cynomolgus PD-L1-Fc, roughly 6 ng/mL with human PD-L1-Fc [3] and roughly 6 ng/mL with human PD-L1-Fc [5].

A word on the Kd: it is the free concentration of one partner at which half of the binding sites on the other are occupied at equilibrium, for simple one-to-one binding. Usually EC50 (read off the curve) stands for the concentration that produces a half-maximal response.
